Patent US20030108545A1
Several values for one entry are separate records, joined by “and”; a condition that tells them apart may be missing. Equal values may be shown once. Read-outs that look alike come from different tables or passages of the source.

B1: rat anti-mouse flk-1 (VEGFR-2) monoclonal antibody DC-101 (antibody, from another filing, V domains shown)
VH: EVQLVETGGGLVQPGNSLKLSCATSGFIFSTTWMNWIRQTPGKRLEWLAQIEDKSNNYFISYSESVKGRFTISRDDSKSSVYLQMNNLKEEDTAIYYCSWKYRSNYYFDYWGQGVMVTVSS
VL: DIVLTQSPALAVSLEQRATISCKTSQNVDYYGISYLHWYQQKPGQQPKLLIYEGSNLASGIPARFSGSGSGTDFTLTIDPVEADDIVTYYCQQSKDYPYTFGAGTKLELKR
B2: anti-KDR (VEGFR-2) single chain antibody scFv p1C11 (scFv, from a related filing, not shown: small tags and cut ends)
scFv: QVKLQQSGAELVGSGASVKLSCTTSGFNIKDFYMHWVKQRPEQGLEWIGWIDPENGDSDYAPKFQGKATMTADSSSNTAYLQLSSLTSEDTAVYYCNAYYGDYEGYWGQGTTVTVSSGGGGSGGGGSGGGGSDIELTQSPAIMSASPGEKVTITCSASSSVSYMHWFQQKPGTSPKLWIYSTSNLASGVPARFSGSGSGTSYSLTISRMEAEDAATYYCQQRSSYPFTFGSGTKLEIK

Assays:
[1] = target: chimeric receptor mouse flk-1 (VEGFR-2)/human fms on transfected 3T3 cells (C441) (mouse; human) (UniProt P35918); experiment: cell-based or functional assay
Chain of chimeric receptor mouse flk-1 (VEGFR-2)/human fms on transfected 3T3 cells (C441) (mouse; human) (P35918 other isoform, or with tags, fused parts or gaps mutant limits assumed): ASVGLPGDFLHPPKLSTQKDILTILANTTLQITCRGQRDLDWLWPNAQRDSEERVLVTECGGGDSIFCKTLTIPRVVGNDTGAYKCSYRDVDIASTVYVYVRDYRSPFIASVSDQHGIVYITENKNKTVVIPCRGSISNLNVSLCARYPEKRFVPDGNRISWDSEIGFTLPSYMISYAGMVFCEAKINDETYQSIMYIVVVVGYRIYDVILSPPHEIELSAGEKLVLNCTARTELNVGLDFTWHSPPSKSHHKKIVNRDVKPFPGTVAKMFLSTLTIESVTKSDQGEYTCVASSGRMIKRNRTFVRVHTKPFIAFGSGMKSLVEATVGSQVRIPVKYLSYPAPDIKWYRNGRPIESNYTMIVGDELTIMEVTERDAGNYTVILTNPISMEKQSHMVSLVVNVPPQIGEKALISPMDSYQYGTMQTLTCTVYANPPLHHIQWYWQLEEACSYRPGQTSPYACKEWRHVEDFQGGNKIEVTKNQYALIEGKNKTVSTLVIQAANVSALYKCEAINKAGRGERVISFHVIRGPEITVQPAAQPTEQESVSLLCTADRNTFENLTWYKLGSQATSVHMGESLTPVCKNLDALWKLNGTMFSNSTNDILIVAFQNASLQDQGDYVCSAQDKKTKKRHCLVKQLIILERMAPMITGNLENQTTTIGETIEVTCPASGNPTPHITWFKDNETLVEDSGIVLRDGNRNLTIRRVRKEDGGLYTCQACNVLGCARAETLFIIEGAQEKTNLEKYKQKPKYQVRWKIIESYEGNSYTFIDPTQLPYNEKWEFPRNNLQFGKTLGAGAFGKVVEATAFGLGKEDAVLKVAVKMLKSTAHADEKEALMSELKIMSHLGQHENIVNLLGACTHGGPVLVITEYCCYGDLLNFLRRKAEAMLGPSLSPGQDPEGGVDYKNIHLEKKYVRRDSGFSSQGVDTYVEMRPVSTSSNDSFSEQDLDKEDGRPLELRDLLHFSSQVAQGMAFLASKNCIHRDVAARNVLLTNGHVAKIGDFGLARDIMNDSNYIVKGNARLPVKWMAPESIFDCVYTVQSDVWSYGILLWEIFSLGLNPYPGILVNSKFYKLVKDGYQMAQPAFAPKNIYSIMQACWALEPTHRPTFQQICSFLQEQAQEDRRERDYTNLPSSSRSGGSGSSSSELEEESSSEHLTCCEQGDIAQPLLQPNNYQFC

[2] = target: chimeric receptor mouse flk-1 (VEGFR-2)/human fms on transfected 3T3 cells (C441) (mouse; human) (UniProt P35918); experiment: saturation binding to intact C441 cells, colorimetric detection (FIG. 7)
[3] = target: soluble fusion protein KDR-AP (KDR (VEGFR-2) extracellular domain fused to human placental alkaline phosphatase) (human) (UniProt P35968); experiment: BIAcore, KDR-AP immobilized
Chain of soluble fusion protein KDR-AP (KDR (VEGFR-2) extracellular domain fused to human placental alkaline phosphatase) (human) (P35968 other isoform, or with tags, fused parts or gaps): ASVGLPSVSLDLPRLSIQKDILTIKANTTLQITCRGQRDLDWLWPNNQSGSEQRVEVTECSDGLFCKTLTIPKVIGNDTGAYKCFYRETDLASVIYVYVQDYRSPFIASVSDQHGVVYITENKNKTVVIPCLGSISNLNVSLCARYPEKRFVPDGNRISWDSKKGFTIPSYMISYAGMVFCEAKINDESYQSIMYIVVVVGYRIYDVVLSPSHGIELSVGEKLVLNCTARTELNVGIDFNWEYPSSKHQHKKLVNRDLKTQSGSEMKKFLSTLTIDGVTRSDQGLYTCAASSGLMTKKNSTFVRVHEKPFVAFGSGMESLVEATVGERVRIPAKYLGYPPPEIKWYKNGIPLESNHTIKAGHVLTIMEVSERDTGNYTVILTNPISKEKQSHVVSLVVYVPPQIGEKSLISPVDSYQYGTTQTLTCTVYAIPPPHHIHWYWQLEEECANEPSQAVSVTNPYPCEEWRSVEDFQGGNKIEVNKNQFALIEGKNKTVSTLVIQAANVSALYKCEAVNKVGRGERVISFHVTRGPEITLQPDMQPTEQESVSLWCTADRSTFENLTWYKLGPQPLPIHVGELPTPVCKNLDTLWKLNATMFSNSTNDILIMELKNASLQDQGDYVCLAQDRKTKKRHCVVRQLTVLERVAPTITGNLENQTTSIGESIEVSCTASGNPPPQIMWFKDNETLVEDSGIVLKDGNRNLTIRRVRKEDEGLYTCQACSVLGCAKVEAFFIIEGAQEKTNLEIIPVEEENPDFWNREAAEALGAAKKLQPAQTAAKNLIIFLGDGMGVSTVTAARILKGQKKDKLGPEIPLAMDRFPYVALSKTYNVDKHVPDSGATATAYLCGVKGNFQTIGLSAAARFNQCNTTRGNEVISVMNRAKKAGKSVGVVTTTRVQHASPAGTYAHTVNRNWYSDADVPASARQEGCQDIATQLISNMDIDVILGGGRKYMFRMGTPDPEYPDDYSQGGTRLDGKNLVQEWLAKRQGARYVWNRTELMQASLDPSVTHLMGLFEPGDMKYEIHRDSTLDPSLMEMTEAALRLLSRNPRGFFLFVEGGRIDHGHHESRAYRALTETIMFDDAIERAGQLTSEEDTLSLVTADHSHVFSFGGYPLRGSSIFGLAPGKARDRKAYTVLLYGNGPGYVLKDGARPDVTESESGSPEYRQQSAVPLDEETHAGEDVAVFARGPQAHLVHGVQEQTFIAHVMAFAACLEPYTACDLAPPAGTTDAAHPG

[4] = target: soluble fusion protein KDR-AP (KDR (VEGFR-2) extracellular domain fused to human placental alkaline phosphatase) (human) (UniProt P35968); experiment: BIAcore, KDR-AP immobilized; remark: listed apart in the source
[5] = target: KDR (VEGFR-2) expressed on the surface of HUVEC (human) (UniProt P35968); experiment: cell-based or functional assay
Chain of KDR (VEGFR-2) expressed on the surface of HUVEC (human) (P35968 20-1356): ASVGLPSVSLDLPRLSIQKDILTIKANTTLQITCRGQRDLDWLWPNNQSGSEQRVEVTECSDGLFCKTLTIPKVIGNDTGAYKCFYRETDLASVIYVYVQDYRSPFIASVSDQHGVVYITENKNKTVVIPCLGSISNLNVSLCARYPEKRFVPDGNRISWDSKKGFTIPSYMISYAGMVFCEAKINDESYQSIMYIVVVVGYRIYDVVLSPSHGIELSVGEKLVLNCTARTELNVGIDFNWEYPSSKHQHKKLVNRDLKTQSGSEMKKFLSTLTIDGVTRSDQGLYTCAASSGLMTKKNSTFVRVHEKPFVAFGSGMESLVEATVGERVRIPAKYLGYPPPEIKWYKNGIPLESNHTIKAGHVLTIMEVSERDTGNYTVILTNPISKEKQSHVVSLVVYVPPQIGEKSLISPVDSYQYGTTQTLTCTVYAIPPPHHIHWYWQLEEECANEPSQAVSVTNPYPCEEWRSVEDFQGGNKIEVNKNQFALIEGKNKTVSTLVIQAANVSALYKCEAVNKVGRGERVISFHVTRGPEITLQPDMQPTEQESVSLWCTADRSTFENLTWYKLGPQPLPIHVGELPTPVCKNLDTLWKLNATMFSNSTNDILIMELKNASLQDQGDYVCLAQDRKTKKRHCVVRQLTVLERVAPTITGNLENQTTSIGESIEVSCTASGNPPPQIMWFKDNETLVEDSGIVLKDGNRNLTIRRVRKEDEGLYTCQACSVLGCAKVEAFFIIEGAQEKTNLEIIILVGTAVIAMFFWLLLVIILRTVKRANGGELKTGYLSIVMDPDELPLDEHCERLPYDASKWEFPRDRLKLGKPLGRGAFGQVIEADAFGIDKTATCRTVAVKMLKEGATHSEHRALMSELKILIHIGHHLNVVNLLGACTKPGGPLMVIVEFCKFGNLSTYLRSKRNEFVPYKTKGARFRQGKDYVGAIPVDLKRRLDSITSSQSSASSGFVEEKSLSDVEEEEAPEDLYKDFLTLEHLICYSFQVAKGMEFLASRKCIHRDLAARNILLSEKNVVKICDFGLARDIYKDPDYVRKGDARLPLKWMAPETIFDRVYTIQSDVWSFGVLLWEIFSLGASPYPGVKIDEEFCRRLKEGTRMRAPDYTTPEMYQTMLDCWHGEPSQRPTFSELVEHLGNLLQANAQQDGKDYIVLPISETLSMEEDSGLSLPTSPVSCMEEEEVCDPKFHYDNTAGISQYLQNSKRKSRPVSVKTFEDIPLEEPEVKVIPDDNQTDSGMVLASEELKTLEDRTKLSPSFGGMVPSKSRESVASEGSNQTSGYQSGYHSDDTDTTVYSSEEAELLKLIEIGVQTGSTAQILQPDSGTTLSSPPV

[6] = target: human KDR (VEGFR-2), immobilized on ELISA plates (construct not stated) (human) (UniProt P35968); experiment: direct binding ELISA on KDR-coated plates (ED50, 50% of maximum binding)
Chain of human KDR (VEGFR-2), immobilized on ELISA plates (construct not stated) (human) (P35968 20-764 limits assumed): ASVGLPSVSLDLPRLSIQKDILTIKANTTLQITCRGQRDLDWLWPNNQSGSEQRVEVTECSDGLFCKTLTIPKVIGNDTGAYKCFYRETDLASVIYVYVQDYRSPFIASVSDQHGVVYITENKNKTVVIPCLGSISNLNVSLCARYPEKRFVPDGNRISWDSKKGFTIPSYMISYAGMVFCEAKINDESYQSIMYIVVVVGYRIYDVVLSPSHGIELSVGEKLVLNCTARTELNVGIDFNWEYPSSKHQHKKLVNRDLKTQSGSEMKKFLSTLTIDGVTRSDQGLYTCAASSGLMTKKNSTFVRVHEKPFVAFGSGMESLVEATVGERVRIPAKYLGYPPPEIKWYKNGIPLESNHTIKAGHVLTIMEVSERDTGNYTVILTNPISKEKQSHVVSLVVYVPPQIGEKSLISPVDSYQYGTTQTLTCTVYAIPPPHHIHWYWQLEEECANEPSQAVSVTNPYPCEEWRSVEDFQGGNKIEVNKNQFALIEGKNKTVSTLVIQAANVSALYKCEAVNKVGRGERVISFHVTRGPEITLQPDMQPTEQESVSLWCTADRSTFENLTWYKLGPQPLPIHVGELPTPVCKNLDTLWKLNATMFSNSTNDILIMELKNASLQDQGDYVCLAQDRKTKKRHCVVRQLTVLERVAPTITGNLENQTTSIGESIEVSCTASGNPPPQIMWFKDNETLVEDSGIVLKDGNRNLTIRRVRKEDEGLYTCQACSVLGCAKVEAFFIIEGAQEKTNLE

[7] = target: soluble fusion protein KDR-AP (KDR (VEGFR-2) extracellular domain fused to human placental alkaline phosphatase) (human) (UniProt P35968); experiment: competitive VEGF blocking ELISA: KDR-AP binding to immobilized VEGF165
[8] = target: human KDR (VEGFR-2), immobilized on ELISA plates (construct not stated) (human) (UniProt P35968); experiment: direct binding ELISA on KDR-coated plates, anti-E tag-HRP detection
[9] = target: soluble fusion protein KDR-AP (KDR (VEGFR-2) extracellular domain fused to human placental alkaline phosphatase) (human) (UniProt P35968); experiment: competitive ELISA: KDR-AP binding to immobilized VEGF165
[10] = scale: % of the fully stimulated receptor control

Binder | phosphorylation of flk-1 (VEGFR-2) by VEGF165 (40 ng/ml), antibody titration [1] | phosphorylation level by densitometry, antibody added with ligand (C) [1, 10] | phosphorylation level by densitometry, antibody prebound (P) [1, 10] | relative apparent affinity [2] | koff [3] | kon [3] | Kd [4] | koff [4] | kon [4] | EC50 of inhibition of VEGF induced DNA synthesis ([3H]-TdR) in HUVEC [5] | antibody concentration required to inhibit 50% of VEGF-induced mitogenesis of HUVEC [5] | EC50 [6] | IC50 [7] | EC50 (read off the curve) [8] | IC50 [9]
B1 | > 0.5 µg/mL and < 1 µg/mL | 40 | 6 | 500 ng/mL |  |  |  |  |  |  |  |  |  |  | 
B2 |  |  |  |  | 0.000227 s⁻¹ | 111000 M⁻¹ s⁻¹ | 2.1 nM | 0.00023 s⁻¹ | 110000 M⁻¹ s⁻¹ | 5 nM | 6 nM | 0.3 nM | 3 nM | 1 nM | 2 nM
